Data as given in patent publication US20240409645A1 (DUALYX, published 2024).

T1: human IL-2Rα (human, UniProt P01589 22-240, limits assumed)
T1 construct: recombinant protein; also called hu IL-2R; human IL-2Ra
T1 sequence: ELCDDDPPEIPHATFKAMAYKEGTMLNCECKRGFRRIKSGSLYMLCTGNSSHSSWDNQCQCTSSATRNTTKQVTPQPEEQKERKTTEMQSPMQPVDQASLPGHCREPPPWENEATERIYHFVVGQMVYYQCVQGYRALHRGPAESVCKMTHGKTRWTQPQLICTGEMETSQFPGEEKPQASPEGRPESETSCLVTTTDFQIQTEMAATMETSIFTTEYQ

T2: human IL-2Rγ (common cytokine receptor γ-chain) (human, UniProt P31785 23-262, limits assumed)
T2 construct: Recombinant protein coated on the plate or immobilised on a CM5 chip; also called hu IL-2R; CD132
T2 sequence: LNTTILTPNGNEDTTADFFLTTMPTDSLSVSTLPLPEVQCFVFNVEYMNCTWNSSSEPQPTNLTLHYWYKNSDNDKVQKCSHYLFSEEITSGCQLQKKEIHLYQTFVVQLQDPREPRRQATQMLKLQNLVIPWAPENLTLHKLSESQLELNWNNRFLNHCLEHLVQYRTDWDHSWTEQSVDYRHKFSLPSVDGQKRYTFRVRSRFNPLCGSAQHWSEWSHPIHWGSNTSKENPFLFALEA


Assays:
human IL-2Rα [1] = molecular target: T1, human IL-2Rα; experiment: ELISA, P.E. on coated antigen
Protocol: (§1) In a binding ELISA, human or mouse IL-2Rα, IL-2Rβ and IL-2Rγ proteins were coated directly on maxisorp microtiter plates overnight at 4° C. Free binding sites were blocked using 4% Marvel in PBS for 1 hour. Next, 1:5 dilution of P.E. in 1% Marvel/PBS were added to wells and incubated for 1 hour. […] Binding specificity was determined based on O.D. at 450 nm values compared to negative controls.

human IL-2Rα [2] = molecular target: T1, human IL-2Rα; experiment: SPR, P.E. on immobilised antigen
Protocol: (§2) SPR was performed to determine dissociation rates using Biacore 3000 instrument (GE Healthcare). Briefly, human and mouse IL-2R proteins were immobilized on carboxylmethyl dextran sensor chip (CM5) at approximately 2500 RUs using amine coupling in acetate buffer (GE Healthcare). The VHH-containing P.E. were loaded with a flow rate of 30 uL/min and the off-rates were measured over a 120s period.

[3] = molecular target: T2, human IL-2Rγ (common cytokine receptor …); experiment: PE binding ELISA, periplasmic extract on coated protein
Protocol: as §1

[4] = molecular target: T2, human IL-2Rγ (common cytokine receptor …); experiment: SPR off-rate ranking, periplasmic extract on immobilised protein
Protocol: as §2

Row | OD (PE binding ELISA) (human IL-2Rα [1]) | koff (human IL-2Rα [2]) | OD (PE binding ELISA) [3] | koff [4] | Binder
1 | 2.47 OD450 nm | – | – | – | FJ1427_P035MP01H10 (VHH, periplasmic extract; also called clone nr; 80) VHH: QVQLVESGGGLVETGGSLRLSCAASGITFNDHTMAWFRQAPGKEREFVAARDWSDIITRYASSVKGRFTISRDNAGNTGFLQMNSLRPEDTAVYYCAAREGGVVAGVRSGAPYDYWGQGTQVTVSS
2 | 2.62 OD450 nm | 0.00042 s⁻¹ | – | – | 5-MP01F05 (VHH, periplasmic extract; also called FJ1427_P035MP01F05) VHH: EVQLVESGGGLVQAGGSLRLSCAASIRAFTTWSMAWFRQAPGKEREYVARINVSGSVTYYADFVKGRFTISRDNAKKTMYLEMNNLKPEDTALYYCAADRTGVGTNDYNYWGQGTQVTVSS
3 | 1.79 OD450 nm | 0.0206 s⁻¹ | – | – | 6-MP01G05 (VHH, periplasmic extract; also called FJ1427_P035MP01G05) VHH: QVQLQESGGGLVQAGGSLRLSCAASGRTFSSYAMGWFRQAPGKEREFVAVISWNVDNTEYTDSVKGRFTISRDNDKNMVYLQMNSLKPEDTAVYYCAADSIPLSSDMSPTATEYGYWGQGTQVTVSS
4 | 2.81 OD450 nm | 0.000778 s⁻¹ | – | – | FJ1427_P035MP01A11 (VHH, periplasmic extract; also called clone nr; 81) VHH: QVQLVESGGGLVQPGGSLRLSCAASGRTFETHNMGWFRRAPGKEREFVAVISWNVDSTEYTDSVKGRFTISRDNDKNMVYLQMNSLKPEDTGVYYCAADNIPLSSDMSPTAAEYGYWGQGTQVTVSS
5 | 2.54 OD450 nm | 0.000799 s⁻¹ | – | – | 3-MP01E03 (VHH, periplasmic extract; also called FJ1427_P035MP01E03) VHH: QVQLVESGGGLVQAGGSLRLSCTASGRTLSSYSMAWFRQAADKGREFVTAISSSGVVTHVLDSVKGRFTISRDNAKNTVYLQMNSLQPEDTALYFCAGTASSYSTYEANYNYWGQGTLVTVSS
6 | 2.14 OD450 nm | 0.00112 s⁻¹ | – | – | FJ1427_P035MP01H07 (VHH, periplasmic extract; also called clone nr; 56) VHH: EVQLVESGGGLVQAGGSLRLSCAASGRTLSGYAMAWFRQPPDKGREFVTAISSSGIVTHVLDSVKGRFTISRDNAKNTVYLQMNSLQPEDTALYFCAATASSYSDYEANYNYWGQGTLVTVSS
7 | 1.71 OD450 nm | 0.0229 s⁻¹ | – | – | 1-MP01H01 (VHH, periplasmic extract; also called FJ1427_P035MP01H01) VHH: EVQLVESGGGLVQAGGSLRLSCAASGRTFRTHNMGWFRRAPGKEREFVAAISWNVDNTLYADSVKGRFTISRDNGRNMVYLQMNSLKPEDTAVYYCAADNIPLSSDVAATATEYDYWGQGTQVTVSS
8 | 2.62 OD450 nm | 0.000725 s⁻¹ | – | – | FJ1427_P035MP01H11 (VHH, periplasmic extract; also called clone nr; 88) VHH: QVQLVESGGGLVQAGGSLRLSCAASGRTFRTHNMGWFRRAPGKEREFVAAISWNVDNTLYADSVKGRFTISRDNDRNMVYLQMNSLKPEDTAVYFCAADNIPLSSDVRATATEFGYWGQGTRVTVSS
9 | 2.6 OD450 nm | – | – | – | FJ1427_P035MP01H08 (VHH, periplasmic extract; also called clone nr; 64) VHH: EVQLVESGGRLVQSGGSLRLSCAASGRAFSTHNMGWFRRAPGKEREFVAAISWNVDNKLYANSVKGRFAISRDNGRNMVYLQMNSLKPEDTAVYYCAADNIPLSSDMRATATEYDVWGQGTQVTVSS
10 | 2.62 OD450 nm | 0.000842 s⁻¹ | – | – | FJ1427_P035MP01D08 (VHH, periplasmic extract; also called clone nr; 60) VHH: EVQLVESGGGLVQAGGSLRLSCAASGGTFRTRNMGWFRRAPGKEREFVAAVSWNVDNKLYAGSVKGRFTISRDNGRNMVYLQMNSLKPEDTAVYYCAADNIPLSSDMRPTATEYDYWGQGTQVTVSS
11 | 2.59 OD450 nm | 0.000498 s⁻¹ | – | – | FJ1427_P035MP01E05 (VHH, periplasmic extract; also called clone nr; 37) VHH: QVQLVESGGGLVQAGGSLRLSCAASGRTFRTHNMGWFRRAPGEEREFVAVISWNVDNKLYADSVKGRFTISRDNGRNMVYLQMNSLKPEDTAVYYCAADNIPLSSDVRATATEFGYWGQGTQVTVSS
12 | 2.52 OD450 nm | 0.000414 s⁻¹ | – | – | FJ1427_P035MP01G01 (VHH, periplasmic extract; also called clone nr) VHH: QVQLQESGGGLVQAGGSLRLSCAASGRTFRTHNMGWFRRAPGKEREFVAAISWNVDNTLYADSVKGRFTISRDNDRNMVYLQMNSLKPEDTAVYFCAADNIPLSSDVRATATEFGYWGQGTRVTVSS
13 | – | – | 0.559 OD450 nm | 0.0658 s⁻¹ | FJ1427_P035MP04G09 (VHH, VHH in periplasmic extract; also called clone nr) VHH: QVQLQESGGGLVQAGGSLRLSCAASGPTFSRVAVGWFRQVPGKEREFVAAVNRPATMTKYADSVKGRFTISRDNAKNTVDLQMNSMKPEDTAVYYCAADSVPYGRPYYFQTSAGEYDYWGQGTQVTVSS
14 | – | – | 0.579 OD450 nm | 0.0195 s⁻¹ | FJ1427_P035MP04D08 (VHH, VHH in periplasmic extract; also called clone nr) VHH: QVQLVESGGGLVQAGESLRLSCAASGPTASRVAVAWFRQVPGKEREFVAVVNRPGTMTKYADSVKGRFTISRDSAKNTVYLQMNSLKPEDTAVYYCAADSVPYGRPYYFQTSAGNYDYWGQGTQVTVSS
15 | – | – | 0.593 OD450 nm | 0.0165 s⁻¹ | FJ1427_P035MP04A11 (VHH, VHH in periplasmic extract; also called clone nr) VHH: QVQLVESGGGLVQAGESLRLSCAASGPTASRVAVAWFRQVPGKEREFVAVVNRPGTMTKYADSVKGRFTISRDSAKNTVYLQMNSLKPEDTAVYYCAADSVPYGRPYYFQTSAGNYDYWGQGTQVTVSS
16 | – | – | 1.3 OD450 nm | 0.048 s⁻¹ | FJ1427_P035MP04H08 (VHH, VHH in periplasmic extract; also called clone nr) VHH: EVQLVESGGGLVQAGESLRLSCAASGPTASRVAVAWFRQVPGKEREFVAVVNRPGTMTKYADSVKGRFTISRDSAKNTVYLQMNSLKPEDTAVYYCAADSVPYGRPYYFQTSAGNYDYWGQGTQVTVSS
17 | 2.57 OD450 nm | 0.00212 s⁻¹ | – | – | FJ1427_P035MP01D09 (VHH, periplasmic extract; also called clone nr; 68) VHH: QVQLVESGGGLVQPGGSLRLSCAASGFTFSNNFMSWVRQAPGKGLEWVSTISYGGESTTYAESVKGRFTISRDNAKNTLYLQMNNLKPEDTAVYYCAKATSYDSIRSGSRGQGTQVTVSS
18 | 2.87 OD450 nm | 0.00327 s⁻¹ | – | – | FJ1427_P035MP01F03 (VHH, periplasmic extract; also called clone nr; 22) VHH: QVQLVESGGGLVQPGGSLRLSCAASGFTFSNNFMSWVRQAPGKGLEWVSTISYGGESTTYAESVKGRFTISRDNAKNTLYLQMNNLKPEDTAVYYCAKATSYDSVRSGSRGQGTQVTVSS
19 | 2.69 OD450 nm | 0.000704 s⁻¹ | – | – | FJ1427_P035MP01E11 (VHH, periplasmic extract; also called clone nr; 85) VHH: QVQLVESGGGLVQPGGSLRLSCAASGFTFSNNFMSWVRQAPGKGLEWVSTISYFGDSTRYAESVKGRFTISRDNEKNTLYLQMNNLKPEDTAVYYCAKATSYDSIRSGSRGRGTQVTVSS
20 | 2.62 OD450 nm | 0.00153 s⁻¹ | – | – | 2-MP01A02 (VHH, periplasmic extract; also called FJ1427_P035MP01A02) VHH: QVQLVESGGGLVQPGGSLRLSCATSGFTFRNNFMSWVRQAPGKGLEWVSTISYGGESTTYAESVKGRFTISRDNAKNTLYLQMNNLKPEDTAVYYCAKATSYDSIRSGSRGQGTQVTVSS
21 | 2.53 OD450 nm | 0.000383 s⁻¹ | – | – | 8-MP01C12 (VHH, periplasmic extract; also called FJ1427_P035MP01C12) VHH: QVQLVESGGGLVQPGGSLRLSCATSGFTFSNNFMSWVRQAPGKGLEFVSTISYGGESTTYAEAVKGRFTISRDNAKNTLYLQMNNLKPEDTAIYYCAKATSYTSIRGAPRGQGTQVTVSS
22 | 2.84 OD450 nm | 0.00144 s⁻¹ | – | – | FJ1427_P035MP01C03 (VHH, periplasmic extract; also called clone nr; 19) VHH: EVQLVESGGGLVQPGGSLRLSCATSGFTFRNNFMSWVRQAPGKGLEWVSTISYGGESTTYAESVKGRFTISRDNAKNTLYLQMNNLKPEDTAVYYCAKATSYDSIRSGSRGQGTQVTVSS
23 | 2.65 OD450 nm | 0.00276 s⁻¹ | – | – | FJ1427_P035MP01H05 (VHH, periplasmic extract; also called clone nr; 40) VHH: EVQLVESGGGLVQPGGSLRLSCAASGFTFSNNFMSWVRQAPGKGLEWVSTISYFGDSTTYAESVKGRFTISRDNAKNTLYLQMNNLKPEDTAVYYCAKATSYDSIRSGSRGRGTQVTVSS
24 | 2.59 OD450 nm | 0.00189 s⁻¹ | – | – | FJ1427_P035MP01D03 (VHH, periplasmic extract; also called clone nr; 20) VHH: EVQLVESGGGLVQPGGSLRLSCATSGFTFRNNFMSWVRQAPGEGLEWVSTISYGGESTTYAESVKGRFTISRDNAKNTLYLQMNNLKPEDTAVYYCAKATSYDSIRSGSRGQGTQVTVSS
25 | 2.79 OD450 nm | 0.00107 s⁻¹ | – | – | FJ1427_P035MP01G04 (VHH, periplasmic extract; also called clone nr; 31) VHH: QVQLVESGGGLVQPGGSLRLSCAASGFTFSNNFMSWVRQAPGKGLEWVSTISYFGDSTRYAESVKGRFTISRDNEKNTLHLQMNNLKPEDTAVYYCAKATSYDSIRSGSRGRGTQVTVSS
